Data on 5 molecules can be found in paper PMC3855764, “Oct4/Sox2 Binding Sites Contribute to Maintaining Hypomethylation of the Maternal Igf2/H19 Imprinting Control Region”.

Common to all, as to settings: protein: recombinant
Data set [1] addresses T1, Sox2 (recombinant) (UniProt P48432 1-319). The experiment in a line: EMSA; Sox2 alone; 10 mM Tris pH 8.0, 2 mM MgCl (so in the source), 100 mM KCl, 1.25 mM DTT, 5% glycerol, 0.0625% BSA, 19 ug/ml dGdC, 25 fmol probe in 16 ul, 10 min room temperature; 4% PAGE 0.25X TBE. On the technique in general: Mobility shift assays separate free from complexed probe on a gel.
The target in data set [2] is T2, Oct4 (recombinant) (UniProt P20263 1-352). The experiment in a line: EMSA; bound both elements equally well; 10 mM Tris pH 8.0, 2 mM MgCl (so in the source), 100 mM KCl, 1.25 mM DTT, 5% glycerol, 0.0625% BSA, 19 ug/ml dGdC, 25 fmol probe in 16 ul, 10 min room temperature; 4% PAGE 0.25X TBE.
T2 sequence (P20263 whole entry): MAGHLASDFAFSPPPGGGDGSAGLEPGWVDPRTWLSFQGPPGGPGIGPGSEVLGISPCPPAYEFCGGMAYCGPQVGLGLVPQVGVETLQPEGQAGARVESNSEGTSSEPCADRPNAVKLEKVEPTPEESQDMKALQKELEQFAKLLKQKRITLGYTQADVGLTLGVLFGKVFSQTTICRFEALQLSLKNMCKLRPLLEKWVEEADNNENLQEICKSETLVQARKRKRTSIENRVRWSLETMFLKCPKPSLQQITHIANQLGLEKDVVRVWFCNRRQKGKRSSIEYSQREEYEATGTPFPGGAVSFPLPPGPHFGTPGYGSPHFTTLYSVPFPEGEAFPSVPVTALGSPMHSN
Data set [3] concerns the target T2, Oct4 (recombinant). The experiment in a line: EMSA; Oct4 binding not altered by Sox mutation; 10 mM Tris pH 8.0, 2 mM MgCl (so in the source), 100 mM KCl, 1.25 mM DTT, 5% glycerol, 0.0625% BSA, 19 ug/ml dGdC, 25 fmol probe in 16 ul, 10 min room temperature; 4% PAGE 0.25X TBE.
The target of data set [4] is T1, Sox2 (recombinant). Briefly: EMSA; almost equal to WT; likely via octamer; 10 mM Tris pH 8.0, 2 mM MgCl (so in the source), 100 mM KCl, 1.25 mM DTT, 5% glycerol, 0.0625% BSA, 19 ug/ml dGdC, 25 fmol probe in 16 ul, 10 min room temperature; 4% PAGE 0.25X TBE.
Data set [5] has as its target T1, Sox2 (recombinant). Briefly: EMSA; 10 mM Tris pH 8.0, 2 mM MgCl (so in the source), 100 mM KCl, 1.25 mM DTT, 5% glycerol, 0.0625% BSA, 19 ug/ml dGdC, 25 fmol probe in 16 ul, 10 min room temperature; 4% PAGE 0.25X TBE.

T1 sequence (P48432 whole entry): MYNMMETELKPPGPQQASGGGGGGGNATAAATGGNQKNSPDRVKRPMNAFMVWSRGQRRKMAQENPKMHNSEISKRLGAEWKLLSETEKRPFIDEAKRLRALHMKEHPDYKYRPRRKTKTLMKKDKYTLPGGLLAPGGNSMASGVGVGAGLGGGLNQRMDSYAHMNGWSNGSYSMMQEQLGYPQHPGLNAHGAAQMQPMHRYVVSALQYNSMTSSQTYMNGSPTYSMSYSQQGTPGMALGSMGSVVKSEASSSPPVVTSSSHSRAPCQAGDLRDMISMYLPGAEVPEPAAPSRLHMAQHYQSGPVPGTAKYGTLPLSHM

B1: ICR Sox-OctA (dsDNA)
DNA 1: CTGGTGATTTGCGCTTTCGTATTCTAATTGGGGAC
DNA 2: GTCCCCAATTAGAATACGAAAGCGCAAATCACCAG
B1: the binding result with Sox2 (recombinant) [1] and with Oct4 (recombinant) [2] was “binds” each time.

B2: mSB (Sox mutant Sox-OctB) (dsDNA)
DNA 1: TTGGGGAACGAAGATGCTAATGATCTCCGGCT
DNA 2: AGCCGGAGATCATTAGCATCTTCGTTCCCCAA
Consider B2, for which the binding result in the data set with Oct4 (recombinant) [3] is recorded as “binds”.

B3: mSA (Sox mutant Sox-OctA) (dsDNA)
DNA 1: CTAAGCGCTACGTCCTAGGTATTCTAATTGGGGAC
DNA 2: GTCCCCAATTAGAATACCTAGGACGTAGCGCTTAG
In the case of B3, the binding result with Sox2 (recombinant) [4] and in the data set with Oct4 (recombinant) [3] was “binds” each time.

B4: ICR Sox-OctB (dsDNA)
DNA 1: TTGGGGCGTTCAGATGCTAATGATCTCCGGCT
DNA 2: AGCCGGAGATCATTAGCATCTGAACGCCCCAA
For B4, the binding result in the data set with Oct4 (recombinant) [2] is on record as “binds”.

B5: ICR SoxC (dsDNA)
DNA 1: GCTCAGGGCTGCAAACAATTCTGAAACTGCATTCTC
DNA 2: GAGAATGCAGTTTCAGAATTGTTTGCAGCCCTGAGC
As to B5, the binding result in the data set with Sox2 (recombinant) [5] is listed as “binds”.
